Measurements published in patent publication US10808017B2, “Ubiquitin variants and uses therof as 53BP1 inhibitors” (The Governing Council of the University of Toronto, priority 2016, dated 2020).
Entries after “also recorded” stand apart in the source; their conditions may differ.

Experiments:
[1] = tested on: BRCA1-deficient RPE1-hTERT cells; assay: Olaparib sensitivity assay; assay type: cell-based; settings: viral delivery of HA-tagged i53; compared to genetic deletion of 53BP1; Trypan blue viable count
Text: FIG. 9 Expression of i53 suppresses PARP inhibitor sensitivity of BRCA1-deficience cells. FIG. 9A, An isogenic set of cell lines derived from RPE 1-hTERT cells deleted for the gene coding for p53 (TP53Δ) containing either no further mutations (WT) or null mutations in BRCA1 (BRCA1Δ) or 53BP1 (53BP1Δ) alone or in combination, as indicated. These cell lines were transduced either with an empty virus (EV) or with lentiviruses that express HA-tagged i53 or its DM mutant. The virus also expressed GFP from an IRES. After sorting for GFP cells the viability of cells following olaparib treatment for […] was monitored by trypan blue exclusion. Data is presented as the mean +/− s.d. (N=3). FIG. 9B , Whole-cell extracts from the isogenic sets of RPE1-hTERT TP53Δ cells were separated by SDS page and probed by immunoblotting with the indicated antibodies. FIG. 9C , Expression of the HA-tagged Ubvs in the indicated RPE1-hTERT TP53Δ cell lines was determined by anti-HA immunoprecipitation (IP) followed by immunoblotting.
RPE1 hTERT cells were obtained from ATTC and maintained in DMEM +10% FCS. […]
Cells were seeded at a density of 20,000 cells/well in 6-well plates in the presence of olaparib at day 0. […] At day 6, cells were collected by trypsinization and viable cell count was determined by Trypan blue exclusion using an automated cell counter (Vi-CELL, Beckman Coulter).

[2] = tested on: gene conversion (HR) in U2OS DR-GFP cells; assay: Direct-repeat (DR)-GFP gene conversion assay; assay type: cell-based, human
Procedure: FIG. 4. Activation of HR by i53. FIG. 4A, Schematic of the DR-GFP assay. FIG. 4B. U2OS DR-GFP cells were transfected with the vectors expressing i53, the DM mutant or an empty vector control (EV) along with an I-Scel expression vector. The percentage of GFP-positive cells was determined 48 h post-transfection for each condition and was normalized to the empty vector condition (mean±s.d., N=4). FIG. 4C, U2OS DR-GFP were first transfected with siRNAs targeting the 53BP1 or BRCA1 mRNAs along with a non-targeting siRNA (CTRL). 24 h post-transfection, cells were transfected with the I-SceI expression vector and the percentage of GFP-positive cells was determined 48 h post-siRNA transfection for each condition. The values were normalized to the empty vector condition and presented as the mean±s.e.m; N=4. FIG. 4D, Schematic of the gene targeting assay. FIG. 4E, Gene targeting efficiency at the LMNA locus in parental or 53BP1Δ U2OS cells following transfection with vectors expressing Flag-tagged i53 or its DM mutant or an empty vector control (EV). The DNA-PK inhibitor NU7441 was also added where indicated. 24 h post-transfection, cells were analysed for mClover fluorescence. Individual experiments are presented with the error bar representing the s.d., (N=3). FIG. 4F, Gene targeting at the LMNA locus in G 1-arrested parental (WT) or 53BP1Δ U2OS cells transfected with vectors expressing Flag-tagged i53 or its DM mutant or an empty vector control (EV). The DNA-PK inhibitor NU7441 was also added in the indicated conditions. 24 h post-transfection, cells were analysed for mClover fluorescence. Individual experiments are present with the error bar representing the s.d., (N=3).
The direct repeat (DR)-GFP assay to measure the frequency of HR and the strand annealing EJ2-GFP assay to measure the frequency of MMEJ were performed as previously described. Briefly, U2OS DR-GFP or U2OS EJ2-GFP cells were transfected with 10 nM siRNA (Dharmacon) using Lipofectamine RNAiMAX (Invitrogen). 24 h later, the cells were transfected with the pCBASceI plasmid (Addgene #26477) and plasmids, using Lipofectamine 2000 (Invitrogen). 48 h post-plasmid transfection, the cells were trypsinized and the percentage of GFP-expressing cells was analyzed using the BD FACSCalibur flow cytometer.
AAV-293 cells (Agilent) were transfected with pAAV expression, pDJ and pHelper constructs (Cell Biolabs, Inc., USA) in equal amounts using PEI to produce AAV-DJ expression viruses. 48-72 h later, the viral supernatant was used to transduce target cells for 24 h, and assays were initiated a further 24 h later.

Substance: i53: UbvG08 with C-terminal di-glycine removed and I44A mutation; genetically encoded inhibitor of 53BP1
- Alleviation of PARP inhibitor (olaparib) sensitivity [1]: only partially alleviated
- Homologous recombination in DR-GFP gene conversion assay after AAV-mediated delivery ([2]; AAV-DJ delivery, versus Flag-i53-DM): stimulate homologous recombination
- Gene conversion in DR-GFP assay (comparison in words) ([2]; SCR7 at 1 μM, i53 by plasmid expression): more potent inducer of gene conversion; also recorded: stimulated gene conversion more than 53BP1 depletion by siRNA
